Source: patent publication US20040072754A1, “Amyloid precursor protein and APP-deprived peptides inhibit tumor growth and metastasis” (priority 2000, published 2004)
No end group written: not given here.

What was measured:
[1] = tested on: hippocampal cell cultures; conditions: Iversen et al., 1995; cited from earlier work
[2] = tested on: D122 tumor cells (Lewis lung carcinoma); experiment: Lewis lung carcinoma (D122) i.v. lung metastasis model with i.p. injected Aβ peptides; format: in vivo, C57/BL mice; conditions: 20 μg/mouse/injection (Aβ96-110: 10 μg), 7 times during two weeks before and 7 times after D122 i.v. injection; examined after 21 days
Procedure: The intravenous (i.v.) model. […] D122 or B16 tumor cells were injected i.v. into Tg-APP, Tg-APP/SOD or parental mice and metastasis was evaluated after 30-37 days. In certain long-term experiments the evaluation was performed over a period of 120-140 days post injection of the tumor cells.
Aβ peptides in phosphate buffered saline (PBS) were injected i.p. into C57/BL mice 4-7 times (7-10 μg each time or 10-20 μg each time in other experiments) during two weeks preceding D122 or B16 tumor cells injection and seven times every second day following D122 or B16 tumor cells injection. Control mice were i.p. injected with PBS. Mice were sacrificed 20-21 days following injection of D122 or B16 tumor cells by injecting 20 mg/mouse Xylazine (i.p.) and lungs were weighed. Lungs were fixed, stained in Bouin's solution and metastases counted. For histology, lungs were fixed in buffered formalin and histological sections were prepared and stained with Hematoxylin-Eosin. Each experimental group included 7-12 animals, and experiments were repeated twice.
D122 tumor cells were injected i.v. to the tail of C57/BL mice. […] All together 77 μg of AP 1-42 were injected into each mouse. After 21 days tumor weight and number of metastases in the lungs were examined.
D122 tumor cells were injected intravenously to the tail of C57/BL mice. […]

Substance | toxicity to neuronal cells [1] | reduction of the number of metastases in the lungs [2] [%]
Aβ1-28: Aβ sequence fragment tested for neurotoxicity in the literature | non-toxic | 
Aβ1-38: Aβ sequence fragment tested for neurotoxicity in the literature | induced toxicity | 
Aβ1-40: Aβ sequence fragment tested for neurotoxicity in the literature | induced toxicity | 
Aβ25-35: Aβ sequence fragment tested for neurotoxicity in the literature (GSNKGAIIGLM; Amyloid-beta protein 42; UniProt P05067 696-706, looked up, fragment) | induced toxicity | 
NWCKRGRKQCKTHPH (cysteine pairing not given here) [Aβ96-10] |  | 9
